Reference: PMC10185811 (2023)

Columns and labels:
[1] = biological target: T1, His6-RPN1 WT (human, UniProt Q13200 1-908); assay: BLI
[2] = biological target: T1, His6-RPN1 WT; assay: BLI; NUB1L pre-bound to GST-FAT10; unit inferred, M assumed
[3] = biological target: T1, His6-RPN1 WT; assay: BLI; in presence of GST; unit inferred, M assumed

T1 sequence (Q13200 whole entry): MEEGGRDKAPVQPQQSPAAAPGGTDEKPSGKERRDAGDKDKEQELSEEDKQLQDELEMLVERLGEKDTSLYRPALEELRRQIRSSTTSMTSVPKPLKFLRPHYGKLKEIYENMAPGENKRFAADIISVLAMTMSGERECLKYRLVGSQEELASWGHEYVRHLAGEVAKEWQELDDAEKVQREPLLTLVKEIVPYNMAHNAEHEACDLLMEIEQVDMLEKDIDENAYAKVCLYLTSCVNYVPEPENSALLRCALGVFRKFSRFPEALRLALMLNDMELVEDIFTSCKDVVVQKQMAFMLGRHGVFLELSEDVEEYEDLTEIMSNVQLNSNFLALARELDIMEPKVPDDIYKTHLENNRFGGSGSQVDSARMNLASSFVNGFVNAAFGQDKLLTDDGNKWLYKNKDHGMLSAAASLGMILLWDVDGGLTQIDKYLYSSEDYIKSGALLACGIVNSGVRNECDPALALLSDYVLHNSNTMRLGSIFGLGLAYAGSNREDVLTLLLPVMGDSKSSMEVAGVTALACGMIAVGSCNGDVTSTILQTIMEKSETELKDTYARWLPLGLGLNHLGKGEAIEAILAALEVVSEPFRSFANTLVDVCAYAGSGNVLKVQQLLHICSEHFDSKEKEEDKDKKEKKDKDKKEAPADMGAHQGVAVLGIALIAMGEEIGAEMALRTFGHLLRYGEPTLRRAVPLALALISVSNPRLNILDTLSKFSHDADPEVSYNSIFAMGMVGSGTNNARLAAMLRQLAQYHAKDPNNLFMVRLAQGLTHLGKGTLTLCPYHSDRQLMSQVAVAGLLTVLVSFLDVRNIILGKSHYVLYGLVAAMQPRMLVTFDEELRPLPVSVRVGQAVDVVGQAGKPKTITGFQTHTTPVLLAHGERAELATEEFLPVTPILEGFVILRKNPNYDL

| Kd [1] | Kd [2] | Kd [3] | Binder |
| --- | --- | --- | --- |
| 4040 µM |  |  | GST-FAT10 (natural protein) MAPNASCLCVHVRSEEWDLMTFDANPYDSVKKIKEHVRSKTKVPVQDQVLLLGSKILKPRRSLSSYGIDKEKTIHLTLKVVKPSDEELPLFLVESGDEAKRHLLQVRRSSSVAQVKAMIETKTGIIPETQIVTCNGKRLEDGKMMADYGIRKGNLLFLACYCIGG |
|  | 0.432 µM |  | NUB1L-bound GST-FAT10 (NUB1L co-incubated with GST-FAT10) (complex) chain 1: MAQKKYLQAKLTQFLREDRIQLWKPPYTDENKKVGLALKDLAKQYSDRLECCENEVEKVIEEIRCKAIERGTGNDNYRTTGIATIEVFLPPRLKKDRKNLLETRLHITGRELRSKIAETFGLQENYIKIVINKKQLQLGKTLEEQGVAHNVKAMVLELKQSEEDARKNFQLEEEEQNEAKLKEKQIQRTKRGLEILAKRAAETVVDPEMTPYLDIANQTGRSIRIPPSERKALMLAMGYHEKGRAFLKRKEYGIALPCLLDADKYFCECCRELLDTVDNYAVLQLDIVWCYFRLEQLECLDDAEKKLNLAQKCFKNCYGENHQRLVHIKGNCGKEKVLFLRLYLLQGIRNYHSGNDVEAYEYLNKARQLFKELYIDPSKVDNLLQLGFTAQEARLGLRACDGNVDHAATHITNRREELAQIRKEEKEKKRRRLENIRFLKGMGYSTHAAQQVLHAASGNLDEALKILLSNPQMWWLNDSNPETDNRQESPSQENIDRLVYMGFDALVAEAALRVFRGNVQLAAQTLAHNGGSLPPELPLSPEDSLSPPATSPSDSAGTSSASTDEDMETEAVNEILEDIPEHEEDYLDSTLEDEEIIIAEYLSYVENRKSATKKN chain 2: MAPNASCLCVHVRSEEWDLMTFDANPYDSVKKIKEHVRSKTKVPVQDQVLLLGSKILKPRRSLSSYGIDKEKTIHLTLKVVKPSDEELPLFLVESGDEAKRHLLQVRRSSSVAQVKAMIETKTGIIPETQIVTCNGKRLEDGKMMADYGIRKGNLLFLACYCIGG |
| 1.71 µM |  | 1.56 µM | NUB1L (NEDD8 ultimate buster 1 long), tagless (natural protein) MAQKKYLQAKLTQFLREDRIQLWKPPYTDENKKVGLALKDLAKQYSDRLECCENEVEKVIEEIRCKAIERGTGNDNYRTTGIATIEVFLPPRLKKDRKNLLETRLHITGRELRSKIAETFGLQENYIKIVINKKQLQLGKTLEEQGVAHNVKAMVLELKQSEEDARKNFQLEEEEQNEAKLKEKQIQRTKRGLEILAKRAAETVVDPEMTPYLDIANQTGRSIRIPPSERKALMLAMGYHEKGRAFLKRKEYGIALPCLLDADKYFCECCRELLDTVDNYAVLQLDIVWCYFRLEQLECLDDAEKKLNLAQKCFKNCYGENHQRLVHIKGNCGKEKVLFLRLYLLQGIRNYHSGNDVEAYEYLNKARQLFKELYIDPSKVDNLLQLGFTAQEARLGLRACDGNVDHAATHITNRREELAQIRKEEKEKKRRRLENIRFLKGMGYSTHAAQQVLHAASGNLDEALKILLSNPQMWWLNDSNPETDNRQESPSQENIDRLVYMGFDALVAEAALRVFRGNVQLAAQTLAHNGGSLPPELPLSPEDSLSPPATSPSDSAGTSSASTDEDMETEAVNEILEDIPEHEEDYLDSTLEDEEIIIAEYLSYVENRKSATKKN |
